The record followed here is paper PMC13193609, “Polyphosphate modulates the stress-responsive formation of functional RNA-protein condensates in bacteria and mammalian cells”.

The data set concerns the target Hfq (Escherichia coli, UniProt P0A6X3 1-102). The data set is described as follows: EMSA; 25 uM Hfq with 0.5-4 uM FAM-rA30, no polyP; Condensates: 20 mM HEPES pH 7.0, 50 mM NaCl, no crowder; EMSA buffer and temperature not given in the material. The settings on record: protein: recombinant; chain copies: 6; label: FAM (5' as printed FAM-(rA)30); single strand.

Sequence of Hfq (P0A6X3 whole entry): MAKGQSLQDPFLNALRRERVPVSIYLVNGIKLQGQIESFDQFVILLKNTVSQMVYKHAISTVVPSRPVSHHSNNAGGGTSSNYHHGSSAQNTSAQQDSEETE

B1: FAM-rA30 (ssRNA)
RNA: AAAAAAAAAAAAAAAAAAAAAAAAAAAAAA
As for B1, the binding result was “binds”.
